# Data published in patent publication US20140271635A1 (Novartis, published 2014).
# Positions count from the first letter of the chain named.
# T1: full length human CD19 expressed on mouse preB cell line 300.19 (300.19-hsCD19FL) (human, UniProt P15391 20-556)
# T1 construct: whole, on cells; also called hCD19; 300.CD19
# T1 sequence (looked up): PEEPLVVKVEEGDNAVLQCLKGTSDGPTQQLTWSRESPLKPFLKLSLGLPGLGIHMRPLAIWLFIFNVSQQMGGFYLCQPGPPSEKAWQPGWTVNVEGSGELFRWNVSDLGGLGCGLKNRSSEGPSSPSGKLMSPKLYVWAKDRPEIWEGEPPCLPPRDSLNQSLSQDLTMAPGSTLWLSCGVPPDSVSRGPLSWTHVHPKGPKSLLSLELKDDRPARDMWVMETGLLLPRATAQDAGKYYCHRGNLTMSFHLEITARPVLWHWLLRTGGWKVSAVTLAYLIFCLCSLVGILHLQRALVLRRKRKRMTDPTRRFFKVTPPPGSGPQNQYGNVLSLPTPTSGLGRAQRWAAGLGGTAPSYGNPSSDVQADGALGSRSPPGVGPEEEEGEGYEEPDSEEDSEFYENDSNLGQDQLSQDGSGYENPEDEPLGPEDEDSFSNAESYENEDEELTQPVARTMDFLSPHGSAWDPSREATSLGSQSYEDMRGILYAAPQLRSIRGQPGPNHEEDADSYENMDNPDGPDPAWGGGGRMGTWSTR
# B1: 103104 CAR 3 - Soluble scFv (scFv)
# scFv: QVQLQESGPGLVKPSETLSLTCTVSGVSLPDYGVSWIRQPPGKGLEWIGVIWGSETTYYSSSLKSRVTISKDNSKNQVSLKLSSVTAADTAVYYCAKHYYYGGSYAMDYWGQGTLVTVSSGGGGSGGGGSGGGGSEIVMTQSPATLSLSPGERATLSCRASQDISKYLNWYQQKPGQAPRLLIYHTSRLHSGIPARFSGSGSGTDYTLTISSLQPEDFAVYFCQQGNTLPYTFGQGTKLEIKHHHHHHHH
# notes: Built here without the leader
# B2: 103106 CAR4 - Soluble scFv (scFv)
# scFv: B1 scFv with S60Q
# notes: Built here without the leader
# B3: 100796 CAR7 - Soluble scFv (scFv)
# scFv: QVQLQESGPGLVKPSETLSLTCTVSGVSLPDYGVSWIRQPPGKGLEWIGVIWGSETTYYSSSLKSRVTISKDNSKNQVSLKLSSVTAADTAVYYCAKHYYYGGSYAMDYWGQGTLVTVSSGGGGSGGGGSGGGGSGGGGSEIVMTQSPATLSLSPGERATLSCRASQDISKYLNWYQQKPGQAPRLLIYHTSRLHSGIPARFSGSGSGTDYTLTISSLQPEDFAVYFCQQGNTLPYTFGQGTKLEIKHHHHHHHH
# notes: Built here without the leader
# B4: 100798 CAR8 - Soluble scFv (scFv)
# scFv: B3 scFv with S60Q
# notes: Built here without the leader
# B5: 99789 CAR5 - Soluble scFv (scFv)
# scFv: EIVMTQSPATLSLSPGERATLSCRASQDISKYLNWYQQKPGQAPRLLIYHTSRLHSGIPARFSGSGSGTDYTLTISSLQPEDFAVYFCQQGNTLPYTFGQGTKLEIKGGGGSGGGGSGGGGSGGGGSQVQLQESGPGLVKPSETLSLTCTVSGVSLPDYGVSWIRQPPGKGLEWIGVIWGSETTYYSSSLKSRVTISKDNSKNQVSLKLSSVTAADTAVYYCAKHYYYGGSYAMDYWGQGTLVTVSSHHHHHHHH
# notes: Built here without the leader
# B6: 99790 CAR6 - Soluble scFv (scFv)
# scFv: B5 scFv with S187Q
# notes: Built here without the leader
# B7: 103101 CAR1 Soluble scFv (scFv)
# scFv: EIVMTQSPATLSLSPGERATLSCRASQDISKYLNWYQQKPGQAPRLLIYHTSRLHSGIPARFSGSGSGTDYTLTISSLQPEDFAVYFCQQGNTLPYTFGQGTKLEIKGGGGSGGGGSGGGGSQVQLQESGPGLVKPSETLSLTCTVSGVSLPDYGVSWIRQPPGKGLEWIGVIWGSETTYYSSSLKSRVTISKDNSKNQVSLKLSSVTAADTAVYYCAKHYYYGGSYAMDYWGQGTLVTVSSHHHHHHHH
# notes: Built here without the leader
# B8: 103102 CAR2 - Soluble scFv (scFv)
# scFv: B7 scFv with S182Q
# notes: Built here without the leader
# Molecular target: T1, full length human CD19 expressed on …
# Assay: flow cytometry on mouse 300.19 cells expressing hCD19, His-tagged scFv
# Procedure: Mouse cell line 300.CD19 were grown in RPMI 1640 with 0.5 mg/ml Zeocin. Around 5e5 cells/per well were transferred to the BD Falcon 96 well plate. The cells were spin down at 900 rpm (Sorval Legend XT centrifuge) for 3 minutes. The supernatant were removed. Anti-CD19 scFv protein samples were diluted in DPBS with 5% FBS. The samples were added into the wells, mixed well with the cells and incubated for 1 hour. The cells were washed twice in the DPBS with 5% FBS. The cells were incubated with antipoly His PE (R&D) for 1 hour, washed twice before FACS analysis (LSRII from BD Biosciences).
row,binding result,Binder
1,binds,B1
2,binds,B2
3,binds,B3
4,binds,B4
5,binds,B5
6,binds,B6
7,binds,B7
8,binds,B8
